Test results taken from publication PMC9163188, “USP53 plays an antitumor role in hepatocellular carcinoma through deubiquitination of cytochrome c” (Oncogenesis, 2022).

Assays:
[1] = target: T1, Flag-USP53 (of the GST pull-down) (UniProt Q70EK8 1-1073); experiment: pull-down; purified GST-HA-CYCS on glutathione agarose, Flag-USP53 added; same method as for GST-HA-USP53 with Flag-CYCS; details: both partners purified
T1 construct: ubiquitin-specific peptidase 53 (USP53); If it came from transfected HEK-293T cells it would be the same construct as m1
T1 sequence (looked up): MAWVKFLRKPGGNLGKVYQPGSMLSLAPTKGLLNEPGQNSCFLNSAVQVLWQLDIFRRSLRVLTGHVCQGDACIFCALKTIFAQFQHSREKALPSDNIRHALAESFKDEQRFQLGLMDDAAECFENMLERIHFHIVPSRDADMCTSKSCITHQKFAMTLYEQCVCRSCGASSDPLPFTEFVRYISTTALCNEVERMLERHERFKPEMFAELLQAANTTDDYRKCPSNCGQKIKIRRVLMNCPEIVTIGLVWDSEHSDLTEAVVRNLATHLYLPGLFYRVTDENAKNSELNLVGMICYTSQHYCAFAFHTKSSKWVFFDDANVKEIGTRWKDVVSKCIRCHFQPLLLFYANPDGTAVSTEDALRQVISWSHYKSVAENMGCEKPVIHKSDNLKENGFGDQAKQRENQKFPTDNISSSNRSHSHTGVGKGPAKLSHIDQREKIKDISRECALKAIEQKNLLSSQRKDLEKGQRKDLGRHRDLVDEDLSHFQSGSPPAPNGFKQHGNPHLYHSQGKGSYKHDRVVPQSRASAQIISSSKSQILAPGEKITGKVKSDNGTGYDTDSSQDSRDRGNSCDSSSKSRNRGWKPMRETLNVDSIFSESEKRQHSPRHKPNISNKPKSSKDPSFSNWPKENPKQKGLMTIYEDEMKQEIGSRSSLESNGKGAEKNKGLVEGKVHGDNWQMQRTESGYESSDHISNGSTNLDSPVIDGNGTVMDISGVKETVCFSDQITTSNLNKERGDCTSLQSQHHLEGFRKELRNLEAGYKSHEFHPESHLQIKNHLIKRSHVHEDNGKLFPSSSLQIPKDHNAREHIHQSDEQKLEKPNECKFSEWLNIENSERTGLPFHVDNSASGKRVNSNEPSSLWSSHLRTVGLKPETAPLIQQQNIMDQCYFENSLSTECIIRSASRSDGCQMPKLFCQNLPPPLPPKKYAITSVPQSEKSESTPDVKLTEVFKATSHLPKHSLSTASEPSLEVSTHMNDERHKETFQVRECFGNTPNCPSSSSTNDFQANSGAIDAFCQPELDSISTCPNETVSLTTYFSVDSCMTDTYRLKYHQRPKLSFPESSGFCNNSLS

GST-HA-USP53 = target: T2, GST-HA-USP53 (UniProt Q70EK8 1-1073); experiment: pull-down; about 100 µg GST-HA-USP53 (or GST-HA) on 50 µL glutathione agarose, 3 washes with PBST, about 100 µg Flag-CYCS fusion protein added, overnight at 4 °C; eluted with 10 mM glutathione in PBS pH 8.0, immunoblot; details: both partners purified
T2 construct: also called GST-HA-USP53 fusion protein; source: E. coli, purified
T2 sequence (looked up): T1 sequence (looked up)

B1: GST-HA-CYCS (natural protein)
chain: not shown
notes: cytochrome c (CYCS); plasmid provided by …; also called GST-HA-CYCS fusion protein; source: purified (same method as for GST-HA-USP53: E. coli)
**Q.** Does B1 bind [1]?
**A.** binds

B2: Flag-CYCS (natural protein)
chain: not shown
notes: cytochrome c (CYCS); plasmid provided by …; also called Flag-CYCS fusion protein; source: E. coli (plasmid transfected into E. coli)
**Q.** Does B2 bind (GST-HA-USP53)?
**A.** binds
